In US20160177307:

Assays:
Test in all cases: filter
[1] = test system: T1, VEGF-165 (Homo sapiens), P15692-4
T1 sequence: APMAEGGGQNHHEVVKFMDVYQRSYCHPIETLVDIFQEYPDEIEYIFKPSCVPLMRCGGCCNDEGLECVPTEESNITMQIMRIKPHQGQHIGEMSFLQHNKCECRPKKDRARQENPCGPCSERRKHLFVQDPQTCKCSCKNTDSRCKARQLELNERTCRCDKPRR

[2] = test system: T2, VEGF-121 (Homo sapiens), P15692-9
T2 sequence: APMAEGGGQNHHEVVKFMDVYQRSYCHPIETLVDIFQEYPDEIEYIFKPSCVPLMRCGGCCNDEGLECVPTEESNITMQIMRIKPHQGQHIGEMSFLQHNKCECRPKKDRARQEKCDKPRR

[3] = molecular target: PDGF-BB (platelet-derived growth factor BB) (Homo sapiens) (UniProt P01127)
Chain of PDGF-BB (platelet-derived growth factor BB) (Homo sapiens) (P01127 82-190): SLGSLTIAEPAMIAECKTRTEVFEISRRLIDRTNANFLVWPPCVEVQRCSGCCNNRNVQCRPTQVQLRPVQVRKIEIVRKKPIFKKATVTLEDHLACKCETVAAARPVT

[4] = as 4867-31_192, PS 3' of 17 as printed, 3' inverted dT
[5] = Nap-dU, Bn-dU, MBn-dU, 2'-OMe, C3, 1 Heg between parts
[6] = Nap-dU, Bn-dU, MBn-dU, 2'-OMe, C3, 2 Heg between parts
[7] = Nap-dU, Bn-dU, MBn-dU, 2'-OMe, C3, 3 Heg between parts
[8] = PDGF-VEGF, no Heg linker, NapdU, BndU

Sequence: AGCCGTTCAAGTGCTTGTAGGATTTAAAT [4867-31_53]
- Kd ([1]; NapdU at P): 3.2 nM
- Kd ([2]; NapdU at P): 19 nM

Sequence: CCGTTCAAGTGCTTGTAGGATTTAAATGG [4867-31_423]
- Kd ([2]; as 4867-31_192, PS 3' of 20, 3' inverted dT): 0.018 nM

Sequence: CCGTTCAAGTGCTTGTAGGATTTAAATGG [4867-31_424]
- Kd ([2]; as 4867-31_192, PS 3' of 21, 3' inverted dT): 0.011 nM

Sequence: CCGTTCAAGTGCTTGTAGGATTTAAATGG [4867-31_425]
- Kd ([2]; as 4867-31_192, PS 3' of 22 or 23 (printed P1-P2), 3' inverted dT): 0.016 nM

Sequence: CCGTTCAAGTGCTTGTAGGATTTAAATGG [4867-31_426]
- Kd ([2]; as 4867-31_192, PS 3' of 24, 3' inverted dT): 0.012 nM

Sequence: CCGTTCAAGTGCTTGTAGGATTTAAATGG [4867-31_427]
- Kd ([2]; as 4867-31_192, PS 3' of 25, 3' inverted dT): 0.0081 nM

Sequence: CCGTTCAAGTGCTTGTAGGATTTAAATGG [4867-31_428]
- Kd ([2]; as 4867-31_192, PS 3' of 26, 3' inverted dT): 0.0084 nM

Sequence: CCGTTCAAGTGCTTGTAGGATTTAAATGG [4867-31_429]
- Kd ([2]; as 4867-31_192, PS 3' of 27, 3' inverted dT): 0.012 nM

Sequence: CCGTTCAAGTGCTTGTAGGATTTAAATGG [4867-31_438]
- Kd ([2]; as 4867-31_192, PS 3' of 6, 3' inverted dT): 0.013 nM

Sequence: CCGTTCAAGTGCTTGTAGGATTTAAATGG [4867-31_439]
- Kd ([2]; as 4867-31_192, PS 3' of 9, 3' inverted dT): 0.024 nM

Sequence: CCGTTCAAGTGCTTGTAGGATTTAAATGG [4867-31_440]
- Kd ([2]; as 4867-31_192, PS 3' of 12, 3' inverted dT): 0.0099 nM

Sequence: CCGTTCAAGTGCTTGTAGGATTTAAATGG [4867-31_441]
- Kd [2, 4]: 0.017 nM

Sequence: CCGTTCAAGTGCTTGTAGGATTTAAATGG [4867-31_442]
- Kd [2, 4]: 0.015 nM

Sequence: CCGTTCAAGTGCTTGTAGGATTTAAATGG [4867-31_443]
- Kd ([2]; as 4867-31_192, PS 3' of 18, 3' inverted dT): 0.0085 nM

Sequence: CCGTTCAAGTGCTTGTAGGATTTAAATGG [4867-31_444]
- Kd ([2]; as 4867-31_192 plus PS 3' of G28, 3'-idT, PS walk): 0.0075 nM

Sequence: CCGTTCAAGTGCTTGTAGGATTTAAATGG [4867-31_445]
- Kd ([2]; as 4867-31_192, PS 3' of 29, 3' inverted dT): 0.01 nM

Sequence: CCGTTCAAGTGCTTGTAGGATTTAAATGG [4867-31_475]
- Kd ([2]; as 4867-31_192, 2'-OMe 1, PS 25): 0.026 nM

Sequence: CCGTTCAAGTGCTTGTAGGATTTAAATGG [4867-31_476]
- Kd ([2]; as 4867-31_192, 2'-OMe 1, PS 26, printed 2.1-11): 0.021 nM

Sequence: CCGTTCAAGTGCTTGTAGGATTTAAATGG [4867-31_477]
- Kd ([2]; as 4867-31_192, 2'-OMe 1, PS 25,26): 0.024 nM

Sequence: CCGTTCAAGTGCTTGTAGGATTTAAATGG [4867-31_478]
- Kd ([2]; as 4867-31_192, PS 25,26): 0.019 nM

Sequence: CCGTTCAAGTGCTTGTAGGATTTAAATGG [4867-31_479]
- Kd ([2]; as 4867-31_192, 2'-OMe 1, PS 24): 0.026 nM

Sequence: CCGTTCAAGTGCTTGTAGGATTTAAATGG [4867-31_480]
- Kd ([2]; as 4867-31_192, 2'-OMe 1, PS 24,25): 0.028 nM

Sequence: CCGTTCAAGTGCTTGTAGGATTTAAATGG [4867-31_481]
- Kd ([2]; as 4867-31_192 plus 2'-OMe C1 and PS 3' of A24,A25,A26, 3'-idT): 0.026 nM

Sequence: CCGTTCAAGTGCTTGTAGGATTTAAATGG [4867-31_482]
- Kd ([2]; as 4867-31_192, PS 24,25,26): 0.024 nM

Sequence: CCGTTCAAGTGCTTGTAGGATTTAAATGG [4867-31_483]
- Kd ([2]; as 4867-31_192, PS 24,25): 0.032 nM

Sequence: CCGTTCAAGTGCTTGTAGGATTTAAATGGCGACAGCATGTATGCACATCT [5169-4_93 (VEGF-6Heg-PDGF)]
- Kd ([2]; P NapdU, superscript 1 2'-OMe, six Heg linkers): 0.052 nM

Sequence: CCGTTCAAGTGCTTGTAGGATTTAAATGGCGACAGCATGTATGCACATCT [5169-4_94]
- Kd ([2]; VEGF-5Heg-PDGF, NapdU, 2'-OMe): 0.066 nM

Sequence: CCGTTCAAGTGCTTGTAGGATTTAAATGGCGACAGCATGTATGCACATCT [5169-4_95]
- Kd ([3]; VEGF-4Heg-PDGF, NapdU, 2'-OMe): 1.2 pM
- Kd ([2]; VEGF-4Heg-PDGF, NapdU, 2'-OMe): 0.043 nM

Sequence: CCGTTCAAGTGCTTGTAGGATTTAAATGGCGACAGCATGTATGCACATCT [5169-4_96]
- Kd ([3]; VEGF-3Heg-PDGF, NapdU, 2'-OMe): 4.5 pM
- Kd ([2]; VEGF-3Heg-PDGF, NapdU, 2'-OMe): 0.076 nM

Sequence: CCGTTCAAGTGCTTGTAGGATTTAAATGGCGACAGCATGTATGCACATCT [5169-4_97]
- Kd ([3]; VEGF-2Heg-PDGF, NapdU, 2'-OMe): 3.7 pM
- Kd ([2]; VEGF-2Heg-PDGF, NapdU, 2'-OMe): 0.1 nM

Sequence: CCGTTCAAGTGCTTGTAGGATTTAAATGGCGACAGCATGTATGCACATCT [5169-4_98]
- Kd ([3]; VEGF-1Heg-PDGF, NapdU, 2'-OMe): 5.3 pM
- Kd ([2]; VEGF-1Heg-PDGF, NapdU, 2'-OMe): 0.14 nM

Sequence: CCGTTCAAGTGCTTGTAGGATTTAAATGGTTACGTTACCGCGTTTATAGCG [4149-8_408]
- Kd [3, 5]: 43 pM
- Kd [1, 5]: 0.041 nM
- Kd [2, 5]: 0.044 nM

Sequence: CCGTTCAAGTGCTTGTAGGATTTAAATGGTTACGTTACCGCGTTTATAGCG [4149-8_409]
- Kd [3, 6]: 600 pM
- Kd [1, 6]: 0.029 nM
- Kd [2, 6]: 0.026 nM

Sequence: CCGTTCAAGTGCTTGTAGGATTTAAATGGTTACGTTACCGCGTTTATAGCG [4149-8_410]
- Kd [3, 7]: 20 pM
- Kd [1, 7]: 0.033 nM
- Kd [2, 7]: 0.026 nM

Sequence: CCGTTCAAGTGCTTGTATGATTTAAATGGA [4867-31_153]
- Kd ([2]; P=Nap-dU): 0.21 nM

Sequence: CCGTTCAAGTGCTTTAGATTTAAATGG [4867-31_184]
- Kd ([2]; NapdU at P, C3 spacer 15,18, 2'-OMe 9,17): 0.084 nM

Sequence: CCGTTCAAGTGCTTTAGATTTAAATGG [4867-31_185]
- Kd ([2]; NapdU at P, C3 spacer 15,18, 2'-OMe 6,9,12,17,28,29): 0.26 nM

Sequence: CCGTTCAAGTGCTTTAGATTTAAATGG [4867-31_186]
- Kd ([2]; NapdU at P, C3 spacer 15,18, 2'-OMe 1,6,9,12,17,25,28,29): 1.6 nM

Sequence: CCGTTCAAGTGCTTTAGGATTTAAATGG [4867-31_187]
- Kd ([2]; 2'-OMe G9,A17, C3 spacer at 15, all P are NapdU, target taken as VEGF-121): 0.032 nM

Sequence: CCGTTCAAGTGCTTTAGGATTTAAATGG [4867-31_188]
- Kd ([2]; NapdU at P, C3 spacer 15, 2'-OMe 9,17,18,28,29 as printed): 0.038 nM

Sequence: CCGTTCAAGTGCTTTAGGATTTAAATGG [4867-31_189]
- Kd ([2]; NapdU at P, C3 spacer 15, 2'-OMe 9,17,18,25,28,29 as printed): 0.9 nM

Sequence: CCGTTCAAGTGCTTTAGGATTTAAATGG [4867-31_190]
- Kd ([2]; NapdU at P, C3 spacer 15, 2'-OMe 9,17,18,22,28,29 as printed): 0.089 nM

Sequence: CCGTTCAAGTGCTTTTAGGATTTAAATGGA [4867-31_150]
- Kd ([2]; P=Nap-dU): 0.24 nM

Sequence: CCGTTGAAGTGCTTGTAGGATTTAAATGGA [4867-31_146]
- Kd ([2]; P=Nap-dU): 5.98 nM

Sequence: CCGTTTAAGTGCTTGTAGGATTTAAATGGA [4867-31_147]
- Kd ([2]; P=Nap-dU): 3.28 nM

Sequence: CCTCCATCAGCCGTTCAAGTGCTTGTAGGATTTAAATGGAATTGGAGGA [4867-15_24]
- Kd ([2]; P=Nap-dU, C3 spacer at 1): 0.11 nM

Sequence: CCTCCATCAGCCGTTCAAGTGCTTGTAGGATTTAAATGGAATTGGAGGA [4867-15_25]
- Kd ([2]; P=Nap-dU, C3 spacer at 2): 0.13 nM

Sequence: CCTCCATCAGCCGTTCAAGTGCTTGTAGGATTTAAATGGAATTGGAGGA [4867-15_26]
- Kd ([2]; P=Nap-dU, C3 spacer at 3): 0.2 nM

Sequence: CGACAGCATGTATGCACATCTCCGTTCAAGTGCTTGTAGGATTTAAATGG [5169-4_99]
- Kd ([3]; PDGF-6Heg-VEGF, NapdU, 2'-OMe): 2.1 pM
- Kd ([2]; PDGF-6Heg-VEGF, NapdU, 2'-OMe): 0.12 nM

Sequence: CGACAGCATGTATGCACATCTCCGTTCAAGTGCTTGTAGGATTTAAATGG [5169-4_100]
- Kd ([3]; PDGF-5Heg-VEGF, NapdU, 2'-OMe): 1.5 pM
- Kd ([2]; PDGF-5Heg-VEGF, NapdU, 2'-OMe): 0.056 nM

Sequence: CGACAGCATGTATGCACATCTCCGTTCAAGTGCTTGTAGGATTTAAATGG [5169-4_101]
- Kd ([2]; PDGF-4Heg-VEGF, NapdU, 2'-OMe): 0.13 nM

Sequence: CGACAGCATGTATGCACATCTCCGTTCAAGTGCTTGTAGGATTTAAATGG [5169-4_102]
- Kd ([3]; PDGF-3Heg-VEGF, NapdU, 2'-OMe): 11 pM
- Kd ([2]; PDGF-3Heg-VEGF, NapdU, 2'-OMe): 0.14 nM

Sequence: CGACAGCATGTATGCACATCTCCGTTCAAGTGCTTGTAGGATTTAAATGG [5169-4_103]
- Kd ([3]; PDGF-2Heg-VEGF, NapdU, 2'-OMe): 6.1 pM
- Kd ([2]; PDGF-2Heg-VEGF, NapdU, 2'-OMe): 0.12 nM

Sequence: CGACAGCATGTATGCACATCTCCGTTCAAGTGCTTGTAGGATTTAAATGG [5169-4_104]
- Kd ([3]; PDGF-1Heg-VEGF, NapdU, 2'-OMe): 4.6 pM
- Kd ([2]; PDGF-1Heg-VEGF, NapdU, 2'-OMe): 0.28 nM

Sequence: GCCGTTCAAGTGCTTGTAGGATTTAAATGG [4867-31_144]
- Kd ([2]; NapdU at P): 0.2 nM

Sequence: TTACGTTACACGCGTTTATAGCGCCGTTCAAGTGCTTTAGATTTAAATG [4149-8_317]
- Kd [3, 8]: 63.8 pM
- Kd [2, 8]: 0.0809 nM

Sequence: TTACGTTACCGCGTTTATAGCGCCGTTCAAGTGCTTGTAGGATTTAAATGG [4149-8_401]
- Kd ([2]; PDGF_379-3Heg-VEGF_192, NapdU, BndU, MBndU, 2'-OMe, 5' amino linker): 0.027 nM
